The values that follow come from paper PMC3024946, “Hydroxyproline-containing collagen analogs trigger the release and activation of collagen-sequestered proMMP-2 by competition with prodomain-derived peptide P33-42” (Fibrogenesis & Tissue Repair, 2011).

Series [1] concerns collagen type I (CI). The series can be described thus: SPR binding of MMPs to immobilized CI, nonactivating buffer. Also noted: species or system human. The conditions noted are these: for Off rate / Kd: without (GPO)10, MMP 100 nM, PBS, 0.05% Tween 20, 25°C; for Off rate: mean from at least three experiments; for Kd: mean ± SD, at least three experiments. The method, then:
(§1) Sensor chip preparations and SPR measurements were performed using a BiacoreX device and the Bia-evaluation software (version 3.2; Biacore, Uppsala, Sweden). The pepsin-resistant triple-helical part of human fibrillar CI (100 μg/ml) in 10 mM acetate coupling buffer, pH 4.8, was immobilized to a dextran matrix-sensor chip at a flow rate of 5 μl/min, resulting in 5,500 resonance units from CI covalently linked via its primary amino groups. The control flow cell was prepared using the coupling buffer without CI. Surfaces were activated and blocked as described previously. Immediately after thawing, pro- and actMMP-2 and pro- and actMMP-9 were diluted to 100 to 250 nM in MMP activity buffer or in PBS and 0.05% (vol/vol) Tween 20. For SPR measurements, flow rates were 10 μl/min at 25°C, and equilibrium was typically reached after 30 to 60 s. The effects of (GPO)10, GAP, (POG)5, (GPP)10 and P33-42 on MMP-2 and MMP-9 binding to CI and their enzymatic activity were determined by adding the binding competitors to the (pro- and act)MMP-2 and MMP-9 solution in 10- to 150-fold molar excesses. Effects independent of MMP-2 and MMP-9 activity were monitored in the presence of Ro 28-2653 (1 μM) during SPR analysis. The gelatinase inhibitor Ro 28-2653 was a generous gift from H.-W. Krell (Roche, Grenzach-Wyhlen, Germany). Sensor surfaces were regenerated with 10 mM glycine, pH 2.3, for 1 min between runs, and sensor chips were used up to 25 times. Kinetic parameters were analyzed using the 1:1 binding model with drifting baseline and subtraction of the control flow cell binding from sensorgrams obtained with immobilized CI. Binding constants (Kd) were calculated from the association (ka) and dissociation rates (kd) obtained from individual binding curves at different concentrations. Individual drifts of the resonance signal were fitted locally, and χ^2 values of 0.2% to 1.0% of the maximum resonance value were considered good fits.
Background: Surface plasmon resonance follows binding to a sensor surface in real time, without labels.

Series [2] is described as follows: In situ binding of MMPs to fibrotic liver sections. The conditions noted are these: immunohistochemistry; 25 ng MMP, 30 min. Also noted: species or system human. The method, then: Human cirrhotic liver cryostat sections (5 μm) were air-dried and fixed in ice-cold acetone for 10 min. Tissue sections were rehydrated with PBS and incubated with 25 ng/50 μl of the respective proMMP and actMMP for 30 min or were left untreated. After thorough washing with PBS, antibodies specific for human MMP-9 (clone MAB911; R&D Systems, Minneapolis, MN, USA) and human MMP-2 (clone 75-7F7; Oncogene, Cambridge, MA, USA) were applied, and primary antibody binding was detected using the alkaline phosphatase-antialkaline phosphatase detection system (Dako, Hamburg, Germany). An irrelevant primary mouse antibody served as control. Nuclei were counterstained with Hemalaun, and slides were examined by standard light microscopy.

In series [3] the test system is collagen type I (CI). Kind of series: SPR binding of MMP-2 to CI, MMP activity buffer with Ro 28-2653. Also noted: species or system human. The method, then: as §1
Series [4] has as its system ProMMP-2. Kind of series: DQ-gelatine degradation assay with MMP-2. It is filed as biochemical, human. The conditions noted are these: MMP alone; 10 ng; 5 h at 25°C; plateau (actMMP-2) or baseline (proMMP-2) level.

B1: ProMMP-9: 92-kDa latent proform of human recombinant MMP-9 (protein)
chain: APRQRQSTLVLFPGDLRTNLTDRQLAEEYLYRYGYTRVAEMRGESKSLGPALLLLQKQLSLPETGELDSATLKAMRTPRCGVPDLGRFQTFEGDLKWHHHNITYWIQNYSEDLPRAVIDDAFARAFALWSAVTPLTFTRVYSRDADIVIQFGVAEHGDGYPFDGKDGLLAHAFPPGPGIQGDAHFDDDELWSLGKGVVVPTRFGNADGAACHFPFIFEGRSYSACTTDGRSDGLPWCSTTANYDTDDRFGFCPSERLYTQDGNADGKPCQFPFIFQGQSYSACTTDGRSDGYRWCATTANYDRDKLFGFCPTRADSTVMGGNSAGELCVFPFTFLGKEYSTCTSEGRGDGRLWCATTSNFDSDKKWGFCPDQGYSLFLVAAHEFGHALGLDHSSVPEALMYPMYRFTEGPPLHKDDVNGIRHLYGPRPEPEPRPPTTTTPQPTAPPTVCPTGPPTVHPSERPTAGPTGPPSAGPTGPPTAGPSTATTVPLSPVDDACNVNIFDAIAEIGNQLYLFKDGKYWRFSEGRGSRPQGPFLIADKWPALPRKLDSVFEERLSKKLFFFSGRQVWVYTGASVLGPRRLDKLGLGADVAQVTGALRSGRGKMLLFSGRRLWRFDVKAQMVDPRSASEVDRMFPGVPLDTHDVFQYREKAYFCQDRFYWRVSSRSELNQVDQVGYVTYDILQCPED
modifications: [125I]-Bolton-Hunter label in the solid-phase assays (dot blot, microwells); no label told for SPR and immunohistochemistry
One may read the Kd as the constant that tells how readily two partners part at equilibrium. Low values mean a tighter complex, high ones a looser complex. In series [1], B1 gave an Off rate of 0.32 s⁻¹ and a Kd of 120 ± 90 nM. Also, the “binding to liver sections” value in series [2] was “preferential staining of fibrotic septa”.

B2: ProMMP-2: 72-kDa latent proform of human recombinant MMP-2 (protein)
chain: APSPIIKFPGDVAPKTDKELAVQYLNTFYGCPKESCNLFVLKDTLKKMQKFFGLPQTGDLDQNTIETMRKPRCGNPDVANYNFFPRKPKWDKNQITYRIIGYTPDLDPETVDDAFARAFQVWSDVTPLRFSRIHDGEADIMINFGRWEHGDGYPFDGKDGLLAHAFAPGTGVGGDSHFDDDELWTLGEGQVVRVKYGNADGEYCKFPFLFNGKEYNSCTDTGRSDGFLWCSTTYNFEKDGKYGFCPHEALFTMGGNAEGQPCKFPFRFQGTSYDSCTTEGRTDGYRWCGTTEDYDRDKKYGFCPETAMSTVGGNSEGAPCVFPFTFLGNKYESCTSAGRSDGKMWCATTANYDDDRKWGFCPDQGYSLFLVAAHEFGHAMGLEHSQDPGALMAPIYTYTKNFRLSQDDIKGIQELYGASPDIDLGTGPTPTLGPVTPEICKQDIVFDGIAQIRGEIFFFKDRFIWRTVTPRDKPMGPLLVATFWPELPEKIDAVYEAPQEEKAVFFAGNEYWIYSASTLERGYPKPLTSLGLPPDVQRVDAAFNWSKNKKTYIFAGDKFWRYNEVKKKMDPGFPKLIADAWNAIPDNLDAVVDLQGGGHSYFFKGAYYLKLENQSLKSVKFGSIKSDWLGC
modifications: [125I]-Bolton-Hunter label in the solid-phase assays (dot blot, microwells); Cy2 label in the tissue release experiment; no label told for SPR and immunohistochemistry
On to B2, for which the “reduction of binding upon MMP activation” value was 2.5 -fold in series [1] (nonactivating buffer) and 35 -fold in series [3] (MMP activity buffer with Ro 28-2653). The same molecule showed an Off rate in series [1] of roughly 0.48 s⁻¹. The dissociation constant (Kd) was found to be 70 ± 30 nM in series [1] and 7.1 ± 0.1 nM in series [3] (no competitor, MMP-2 100 nM, MMP activity buffer, 1 μM Ro 28-2653, 25°C, mean ± SD, at least three experiments). Further, in series [3] (MMP activity buffer with Ro 28-2653 vs nonactivating buffer), the “binding enhancement to CI” value is 10 -fold. In addition, the “binding to liver sections” value in series [2] was “preferential staining of fibrotic septa”. For the same molecule, the DQ-gelatine conversion entry in series [4] is “about 200 relative fluorescence units”.
